From IntAct's records for PubMed 16739988

B1: Gem-associated protein 5 (Homo sapiens), Q8TEQ6 (parent)
chain: MGQEPRTLPPSPNWYCARCSDAVPGGLFGFAARTSVFLVRVGPGAGESPGTPPFRVIGELVGHTERVSGFTFSHHPGQYNLCATSSDDGTVKIWDVETKTVVTEHALHQHTISTLHWSPRVKDLIVSGDEKGVVFCYWFNRNDSQHLFIEPRTIFCLTCSPHHEDLVAIGYKDGIVVIIDISKKGEVIHRLRGHDDEIHSIAWCPLPGEDCLSINQEETSEEAEITNGNAVAQAPVTKGCYLATGSKDQTIRIWSCSRGRGVMILKLPFLKRRGGGIDPTVKERLWLTLHWPSNQPTQLVSSCFGGELLQWDLTQSWRRKYTLFSASSEGQNHSRIVFNLCPLQTEDDKQLLLSTSMDRDVKCWDIATLECSWTLPSLGGFAYSLAFSSVDIGSLAIGVGDGMIRVWNTLSIKNNYDVKNFWQGVKSKVTALCWHPTKEGCLAFGTDDGKVGLYDTYSNKPPQISSTYHKKTVYTLAWGPPVPPMSLGGEGDRPSLALYSCGGEGIVLQHNPWKLSGEAFDINKLIRDTNSIKYKLPVHTEISWKADGKIMALGNEDGSIEIFQIPNLKLICTIQQHHKLVNTISWHHEHGSQPELSYLMASGSNNAVIYVHNLKTVIESSPESPVTITEPYRTLSGHTAKITSVAWSPHHDGRLVSASYDGTAQVWDALREEPLCNFRGHRGRLLCVAWSPLDPDCIYSGADDFCVHKWLTSMQDHSRPPQGKKSIELEKKRLSQPKAKPKKKKKPTLRTPVKLESIDGNEEESMKENSGPVENGVSDQEGEEQAREPELPCGLAPAVSREPVICTPVSSGFEKSKVTINNKVILLKKEPPKEKPETLIKKRKARSLLPLSTSLDHRSKEELHQDCLVLATAKHSRELNEDVSADVEERFHLGLFTDRATLYRMIDIEGKGHLENGHPELFHQLMLWKGDLKGVLQTAAERGELTDNLVAMAPAAGYHVWLWAVEAFAKQLCFQDQYVKAASHLLSIHKVYEAVELLKSNHFYREAIAIAKARLRPEDPVLKDLYLSWGTVLERDGHYAVAAKCYLGATCAYDAAKVLAKKGDAASLRTAAELAAIVGEDELSASLALRCAQELLLANNWVGAQEALQLHESLQGQRLVFCLLELLSRHLEEKQLSEGKSSSSYHTWNTGTEGPFVERVTAVWKSIFSLDTPEQYQEAFQKLQNIKYPSATNNTPAKQLLLHICHDLTLAVLSQQMASWDEAVQALLRAVVRSYDSGSFTIMQEVYSAFLPDGCDHLRDKLGDHQSPATPAFKSLEAFFLYGRLYEFWWSLSRPCPNSSVWVRAGHRTLSVEPSQQLDTASTEETDPETSQPEPNRPSELDLRLTEEGERMLSTFKELFSEKHASLQNSQRTVAEVQETLAEMIRQHQKSQLCKSTANGPDKNEPEVEAEQPLCSSQSQCKEEKNEPLSLPELTKRLTEANQRMAKFPESIKAWPFPDVLECCLVLLLIRSHFPGCLAQEMQQQAQELLQKYGNTKTYRRHCQTFCM

Variants of: B1
Settings: with if4e_human EIF4E

Effect of a mutation on the interaction, decreasing interaction:
L265A
L270A;K271A
Y992A
L997A;L998A
